Laboratory results published in IntAct's records for PubMed 23084749.

B1: Protein deacetylase HDAC6 (Homo sapiens), Q9UBN7 (parent)
chain: MTSTGQDSTTTRQRRSRQNPQSPPQDSSVTSKRNIKKGAVPRSIPNLAEVKKKGKMKKLGQAMEEDLIVGLQGMDLNLEAEALAGTGLVLDEQLNEFHCLWDDSFPEGPERLHAIKEQLIQEGLLDRCVSFQARFAEKEELMLVHSLEYIDLMETTQYMNEGELRVLADTYDSVYLHPNSYSCACLASGSVLRLVDAVLGAEIRNGMAIIRPPGHHAQHSLMDGYCMFNHVAVAARYAQQKHRIRRVLIVDWDVHHGQGTQFTFDQDPSVLYFSIHRYEQGRFWPHLKASNWSTTGFGQGQGYTINVPWNQVGMRDADYIAAFLHVLLPVALEFQPQLVLVAAGFDALQGDPKGEMAATPAGFAQLTHLLMGLAGGKLILSLEGGYNLRALAEGVSASLHTLLGDPCPMLESPGAPCRSAQASVSCALEALEPFWEVLVRSTETVERDNMEEDNVEESEEEGPWEPPVLPILTWPVLQSRTGLVYDQNMMNHCNLWDSHHPEVPQRILRIMCRLEELGLAGRCLTLTPRPATEAELLTCHSAEYVGHLRATEKMKTRELHRESSNFDSIYICPSTFACAQLATGAACRLVEAVLSGEVLNGAAVVRPPGHHAEQDAACGFCFFNSVAVAARHAQTISGHALRILIVDWDVHHGNGTQHMFEDDPSVLYVSLHRYDHGTFFPMGDEGASSQIGRAAGTGFTVNVAWNGPRMGDADYLAAWHRLVLPIAYEFNPELVLVSAGFDAARGDPLGGCQVSPEGYAHLTHLLMGLASGRIILILEGGYNLTSISESMAACTRSLLGDPPPLLTLPRPPLSGALASITETIQVHRRYWRSLRVMKVEDREGPSSSKLVTKKAPQPAKPRLAERMTTREKKVLEAGMGKVTSASFGEESTPGQTNSETAVVALTQDQPSEAATGGATLAQTISEAAIGGAMLGQTTSEEAVGGATPDQTTSEETVGGAILDQTTSEDAVGGATLGQTTSEEAVGGATLAQTTSEAAMEGATLDQTTSEEAPGGTELIQTPLASSTDHQTPPTSPVQGTTPQISPSTLIGSLRTLELGSESQGASESQAPGEENLLGEAAGGQDMADSMLMQGSRGLTDQAIFYAVTPLPWCPHLVAVCPIPAAGLDVTQPCGDCGTIQENWVCLSCYQVYCGRYINGHMLQHHGNSGHPLVLSYIDLSAWCYYCQAYVHHQALLDVKNIAHQNKFGEDMPHPH
partner: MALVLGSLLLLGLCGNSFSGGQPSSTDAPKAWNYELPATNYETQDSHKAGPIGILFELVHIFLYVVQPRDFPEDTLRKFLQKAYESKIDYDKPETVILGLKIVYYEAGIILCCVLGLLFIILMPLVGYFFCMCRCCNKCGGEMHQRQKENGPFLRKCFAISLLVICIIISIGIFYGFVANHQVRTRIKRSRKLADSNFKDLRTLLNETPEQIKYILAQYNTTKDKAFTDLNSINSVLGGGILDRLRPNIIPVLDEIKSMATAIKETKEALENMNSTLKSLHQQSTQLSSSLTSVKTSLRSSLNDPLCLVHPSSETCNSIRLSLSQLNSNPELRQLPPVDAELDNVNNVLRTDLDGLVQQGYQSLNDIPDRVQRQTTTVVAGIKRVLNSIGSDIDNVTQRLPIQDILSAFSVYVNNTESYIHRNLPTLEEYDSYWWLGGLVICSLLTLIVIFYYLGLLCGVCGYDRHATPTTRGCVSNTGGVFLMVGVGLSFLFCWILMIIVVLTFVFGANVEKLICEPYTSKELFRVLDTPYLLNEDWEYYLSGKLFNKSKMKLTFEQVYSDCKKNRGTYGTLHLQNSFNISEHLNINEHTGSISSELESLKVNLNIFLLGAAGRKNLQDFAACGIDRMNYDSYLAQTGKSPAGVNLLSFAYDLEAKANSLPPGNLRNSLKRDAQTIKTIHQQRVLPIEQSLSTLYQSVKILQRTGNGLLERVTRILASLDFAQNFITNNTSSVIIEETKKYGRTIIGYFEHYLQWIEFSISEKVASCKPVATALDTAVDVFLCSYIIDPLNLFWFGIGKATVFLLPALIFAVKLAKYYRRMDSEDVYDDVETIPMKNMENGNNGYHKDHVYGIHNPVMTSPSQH

Variants of: B1
Details: with prom1_human PROM1, O43490

Row | Variant | effect of a mutation on the interaction
1 | S568E | disrupting interaction strength
2 | S568A | with no effect
3 | Y570A | with no effect
4 | Y570E | disrupting interaction strength
5 | H216A;H611A | with no effect
